Key:
DNMT3a-CD [1] = target: T1, DNMT3a-CD (mouse, UniProt O88508 608-908); test: EMSA; binding not altered; 20 mM HEPES, 40 mM KCl, 1 mM EDTA, 0.2 mM DTT, 0.1 mg/ml BSA, 0.1% Tween-20, 20% glycerol; pH not stated; 1 h at 37 C; 1 nM probe; native 4-20% PAGE; conditions: protein: recombinant; label: 5'-Cy5.5; unstructured (predicted)
[2] = target: DNMT3a (in DNMT3a/DNMT3l complex);DNMT3l (human;human, UniProt Q9Y6K1;Q9UJW3 1-912;1-386, |); test: EMSA; 0.2 uM protein; 20 mM HEPES, 40 mM KCl, 1 mM EDTA, 0.2 mM DTT, 0.1 mg/ml BSA, 0.1% Tween-20, 20% glycerol; pH not stated; 1 h at 37 C; 1 nM probe; native 4-20% PAGE
Chain of DNMT3a (in DNMT3a/DNMT3l complex);DNMT3l (Q9Y6K1 whole entry, chain 1 of 2): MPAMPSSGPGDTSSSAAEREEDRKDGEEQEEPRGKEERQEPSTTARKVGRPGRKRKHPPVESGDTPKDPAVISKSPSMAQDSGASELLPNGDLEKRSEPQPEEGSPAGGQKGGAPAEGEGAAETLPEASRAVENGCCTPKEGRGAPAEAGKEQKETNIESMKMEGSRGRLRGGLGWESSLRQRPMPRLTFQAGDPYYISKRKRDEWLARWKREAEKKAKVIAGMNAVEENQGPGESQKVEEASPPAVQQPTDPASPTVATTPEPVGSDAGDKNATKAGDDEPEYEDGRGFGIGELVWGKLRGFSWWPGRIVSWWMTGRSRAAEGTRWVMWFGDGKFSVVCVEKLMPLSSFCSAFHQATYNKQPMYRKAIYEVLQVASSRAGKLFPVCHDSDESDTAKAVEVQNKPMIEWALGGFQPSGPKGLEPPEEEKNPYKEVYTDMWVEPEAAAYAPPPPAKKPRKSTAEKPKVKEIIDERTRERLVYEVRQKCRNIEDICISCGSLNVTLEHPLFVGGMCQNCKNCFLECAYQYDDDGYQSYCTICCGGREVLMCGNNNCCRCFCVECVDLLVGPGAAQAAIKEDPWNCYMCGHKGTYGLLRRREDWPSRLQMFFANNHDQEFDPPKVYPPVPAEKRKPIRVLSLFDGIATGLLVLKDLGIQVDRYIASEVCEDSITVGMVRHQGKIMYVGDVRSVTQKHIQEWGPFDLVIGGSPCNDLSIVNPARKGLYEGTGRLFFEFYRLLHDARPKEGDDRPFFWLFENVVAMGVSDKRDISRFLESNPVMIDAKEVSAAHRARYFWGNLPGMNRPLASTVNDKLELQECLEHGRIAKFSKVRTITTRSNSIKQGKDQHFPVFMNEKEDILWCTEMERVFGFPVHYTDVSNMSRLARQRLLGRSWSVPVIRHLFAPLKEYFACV
Chain of DNMT3a (in DNMT3a/DNMT3l complex);DNMT3l (Q9UJW3 whole entry, chain 2 of 2): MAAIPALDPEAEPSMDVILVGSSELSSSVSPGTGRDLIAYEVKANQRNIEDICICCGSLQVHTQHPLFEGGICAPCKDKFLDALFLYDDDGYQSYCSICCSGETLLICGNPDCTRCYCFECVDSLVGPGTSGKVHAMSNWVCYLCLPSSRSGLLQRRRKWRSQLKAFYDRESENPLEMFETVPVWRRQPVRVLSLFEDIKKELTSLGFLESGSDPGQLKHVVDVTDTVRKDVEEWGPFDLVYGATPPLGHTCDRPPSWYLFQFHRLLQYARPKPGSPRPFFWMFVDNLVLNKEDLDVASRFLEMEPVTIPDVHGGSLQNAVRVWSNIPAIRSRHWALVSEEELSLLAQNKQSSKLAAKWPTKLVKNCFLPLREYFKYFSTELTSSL

DNMT3a-CD [3] = target: T1, DNMT3a-CD; test: EMSA; DNMT3a-CD 0.002-0.2 uM; value only in figure, text: low nanomolar, same as dsDNA (P=0.49); 20 mM HEPES, 40 mM KCl, 1 mM EDTA, 0.2 mM DTT, 0.1 mg/ml BSA, 0.1% Tween-20, 20% glycerol; pH not stated; 1 h at 37 C; 1 nM probe; native 4-20% PAGE; conditions: protein: recombinant; label: 5'-Cy5.5; predicted stem-loop
DNMT3a-CD [4] = target: T1, DNMT3a-CD; test: competition EMSA; vs 1 nM Cy5.5-ecRNA-1; competitor 1-100 nM; 20 mM HEPES, 40 mM KCl, 1 mM EDTA, 0.2 mM DTT, 0.1 mg/ml BSA, 0.1% Tween-20, 20% glycerol; pH not stated; 1 h at 37 C; 1 nM probe; native 4-20% PAGE; conditions: protein: recombinant; chain copies: 2; blunt
DNMT3a-CD [5] = target: T1, DNMT3a-CD; test: EMSA; binding not impaired; 20 mM HEPES, 40 mM KCl, 1 mM EDTA, 0.2 mM DTT, 0.1 mg/ml BSA, 0.1% Tween-20, 20% glycerol; pH not stated; 1 h at 37 C; 1 nM probe; native 4-20% PAGE; conditions: protein: recombinant; label: 5'-Cy5.5; unstructured (predicted)
DNMT3a-CD [6] = target: T1, DNMT3a-CD; test: EMSA; 0.2 uM protein; complete binding; 20 mM HEPES, 40 mM KCl, 1 mM EDTA, 0.2 mM DTT, 0.1 mg/ml BSA, 0.1% Tween-20, 20% glycerol; pH not stated; 1 h at 37 C; 1 nM probe; native 4-20% PAGE; conditions: protein: recombinant; label: 5'-Cy5.5; predicted stem-loop

T1 sequence (O88508 608-908): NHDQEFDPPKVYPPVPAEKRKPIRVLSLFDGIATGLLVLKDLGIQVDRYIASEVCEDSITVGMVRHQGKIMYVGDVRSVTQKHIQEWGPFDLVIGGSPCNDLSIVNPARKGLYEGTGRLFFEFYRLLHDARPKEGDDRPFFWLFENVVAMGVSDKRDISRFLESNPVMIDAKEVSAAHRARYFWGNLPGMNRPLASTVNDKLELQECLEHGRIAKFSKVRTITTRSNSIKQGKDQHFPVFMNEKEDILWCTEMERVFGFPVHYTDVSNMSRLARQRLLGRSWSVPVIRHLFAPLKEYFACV

B1: mutant ecRNA-2 (ssRNA)
RNA: GAUGAUCCUGCCUUGAAGUGACGCU
binding result (DNMT3a-CD [1]): binds

B2: ecRNA-1 (ssRNA)
RNA: GGGGACACGCCCUCUGUUCCCUUAU
binding result [2]: binds | binding result (DNMT3a-CD [3]): binds

B3: ecDNA-1 unlabelled competitor (dsDNA)
DNA 1: GGGGACACGCCCTCTGTTCCCTTAT
DNA 2: ATAAGGGAACAGAGGGCGTGTCCCC
IC50 (DNMT3a-CD [4]): > 20 fold excess over 1 nM ecRNA-1

B4: mutant ecRNA-1 (ssRNA)
RNA: GUCGACACGCCCUCUGUUCCGUUAG
binding result (DNMT3a-CD [5]): binds

B5: ecRNA-2 (ssRNA)
RNA: GUCUGUGCACCGUGUGCAUAUACAG
binding result [2]: binds | binding result (DNMT3a-CD [6]): binds

From paper PMC4941050, “Extra-coding RNAs regulate neuronal DNA methylation dynamics”
